Assay results: article PMC3785434
Values belong to the substance of their own block, whether it stands above or below them.

Columns and labels:
Test in all cases: SEC; HiLoad 16/60 Superdex 75, 50 mM sodium phosphate pH 7.4, 50 µg sample, 0.6 mL/min, calibrated with mass standards; self-association of the free light chain (dimer)
[1] = target: recombinant free immunoglobulin lambda light chain of AL amyloidosis patient AL-1 (human) (UniProt P01699)
[2] = target: recombinant free immunoglobulin lambda light chain of AL amyloidosis patient AL-2 (human) (UniProt P01701)
[3] = target: Bence Jones protein from AL-2 patient (human) (UniProt P01701)
[4] = target: recombinant free immunoglobulin lambda light chain of AL amyloidosis patient AL-3 (human) (UniProt P01699)

stoichiometry N [1]: 2
Substance: recombinant free immunoglobulin lambda light chain of AL amyloidosis patient AL-1 (from UniProt P01699 20-117)

stoichiometry N [2]: 2
Substance: recombinant free immunoglobulin lambda light chain of AL amyloidosis patient AL-2 (from UniProt P01701 20-117)

stoichiometry N [3]: 2
Substance: Bence Jones protein from AL-2 patient (from UniProt P01701 20-117) (natural protein)

stoichiometry N [4]: 2
Substance: recombinant free immunoglobulin lambda light chain of AL amyloidosis patient AL-3 (from UniProt P01699 20-117)
